In patent publication US20100233154A1 (AstraZeneca / MedImmune, published 2010):
Numbering of substitutions follows the chain as printed.

T1: recombinant human heparanase (active, 8 and 50 kDa sub-units, from baculovirus-infected Hi5 cells) (human, UniProt Q9Y251 36-109; Q9Y251 158-543)
T1 construct: domain: 8 kDa sub-unit;domain: 50 kDa sub-unit; also called soluble recombinant human heparanase; recombinant Hpa1
T1 sequence (looked up) 1: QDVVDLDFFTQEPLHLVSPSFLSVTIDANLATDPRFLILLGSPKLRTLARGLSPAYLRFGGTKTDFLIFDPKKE
T1 sequence (looked up) 2: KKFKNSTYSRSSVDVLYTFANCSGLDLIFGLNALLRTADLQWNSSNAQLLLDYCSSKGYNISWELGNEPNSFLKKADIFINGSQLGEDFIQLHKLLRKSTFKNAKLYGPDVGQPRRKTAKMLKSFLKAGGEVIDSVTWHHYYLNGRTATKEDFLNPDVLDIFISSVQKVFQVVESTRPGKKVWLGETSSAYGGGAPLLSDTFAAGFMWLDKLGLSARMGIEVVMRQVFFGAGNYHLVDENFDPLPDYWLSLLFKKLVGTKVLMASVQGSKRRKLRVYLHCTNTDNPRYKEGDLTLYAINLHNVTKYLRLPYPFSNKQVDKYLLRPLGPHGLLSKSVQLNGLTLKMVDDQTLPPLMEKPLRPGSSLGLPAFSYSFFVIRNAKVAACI

T2: murine heparanase (murine, UniProt Q6YGZ1 28-535, limits assumed)
T2 construct: also called Mouse; recombinant murine heparanase
T2 sequence (looked up): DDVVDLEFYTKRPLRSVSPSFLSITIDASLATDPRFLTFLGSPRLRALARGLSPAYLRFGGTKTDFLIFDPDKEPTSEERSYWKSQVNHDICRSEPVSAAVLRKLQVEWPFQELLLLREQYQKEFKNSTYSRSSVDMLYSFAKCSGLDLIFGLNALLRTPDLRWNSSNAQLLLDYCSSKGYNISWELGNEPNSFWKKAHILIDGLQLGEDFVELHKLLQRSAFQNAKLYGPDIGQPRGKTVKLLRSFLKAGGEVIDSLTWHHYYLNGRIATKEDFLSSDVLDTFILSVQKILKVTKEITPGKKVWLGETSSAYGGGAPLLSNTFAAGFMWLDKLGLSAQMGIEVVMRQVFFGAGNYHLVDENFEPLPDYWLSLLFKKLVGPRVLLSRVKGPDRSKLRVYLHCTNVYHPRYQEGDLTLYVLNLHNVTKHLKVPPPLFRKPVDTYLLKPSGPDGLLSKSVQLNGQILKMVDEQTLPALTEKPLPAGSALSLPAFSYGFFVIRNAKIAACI

T3: cynomolgus heparanase (cynomolgus, UniProt A0A2K5UQU0 87-593)
T3 construct: also called recombinant cynomolgus heparanase
T3 sequence: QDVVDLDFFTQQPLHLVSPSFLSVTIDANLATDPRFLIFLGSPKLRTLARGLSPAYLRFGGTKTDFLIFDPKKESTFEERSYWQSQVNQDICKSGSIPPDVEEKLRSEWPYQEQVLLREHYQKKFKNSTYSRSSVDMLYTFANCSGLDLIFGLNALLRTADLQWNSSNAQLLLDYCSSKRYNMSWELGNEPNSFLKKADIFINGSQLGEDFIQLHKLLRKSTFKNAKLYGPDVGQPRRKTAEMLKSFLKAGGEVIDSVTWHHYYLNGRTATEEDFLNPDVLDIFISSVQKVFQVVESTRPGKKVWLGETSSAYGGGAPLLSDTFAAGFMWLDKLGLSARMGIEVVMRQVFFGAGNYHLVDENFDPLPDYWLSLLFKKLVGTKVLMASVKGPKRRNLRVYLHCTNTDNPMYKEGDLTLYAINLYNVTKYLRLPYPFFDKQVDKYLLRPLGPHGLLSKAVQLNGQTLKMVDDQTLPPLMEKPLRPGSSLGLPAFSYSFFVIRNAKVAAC

T4: human heparanase as used in the cross species capture ELISA (human, UniProt Q9Y251 36-543, limits assumed)
T4 construct: Captured on plates by a rabbit anti-heparanase antibody
T4 sequence (looked up): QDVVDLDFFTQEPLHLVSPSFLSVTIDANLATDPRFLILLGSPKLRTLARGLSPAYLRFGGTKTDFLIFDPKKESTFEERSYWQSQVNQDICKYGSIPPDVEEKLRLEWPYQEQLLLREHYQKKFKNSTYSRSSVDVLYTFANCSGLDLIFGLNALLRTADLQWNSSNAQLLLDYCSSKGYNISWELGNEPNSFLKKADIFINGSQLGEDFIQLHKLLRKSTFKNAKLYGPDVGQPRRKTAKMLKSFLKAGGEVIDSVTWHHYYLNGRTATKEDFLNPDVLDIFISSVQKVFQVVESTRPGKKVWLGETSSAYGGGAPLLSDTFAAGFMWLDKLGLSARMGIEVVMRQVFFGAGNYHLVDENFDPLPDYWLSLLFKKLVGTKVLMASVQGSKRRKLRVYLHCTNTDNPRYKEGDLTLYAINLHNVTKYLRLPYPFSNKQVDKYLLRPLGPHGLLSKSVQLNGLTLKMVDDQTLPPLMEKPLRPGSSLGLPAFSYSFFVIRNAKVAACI

B1: monoclonal antibody 15A1.2 (antibody, V domains shown)
VH: QVQLVQSGAEVKKPGASVKVSCKVSGYTLTELSMHWVRQAPGKGLEWMGGFDPEDGETIFAQKFQGRVTMTEDTSTDTAYMELSSLRSEDTAVYYCATGLRFLEWFLWGWDVWGQGTTVTVSS
VL: DIQMTQSPSSVSASVGDRVTITCRASQGISNWLAWYQQTPGKAPQLLIYGASSLQSGVPSRFSGSGSGTDFTLTISSLQPEDFATYYCQQADSFPPTFGQGTKVEIK
notes: Fully human (XenoMouse) antibody; also called ATCC PTA-9491
B2: monoclonal antibody 15A11.1 (antibody, V domains shown)
VH: QVQLVQSGAEVKKPGASVKVSCKVSGDTLTELSMHWVRQTPGKGLEWMGGFDPEDGETIYAQKFQGRVTMTGDTSTDTAYMELSSLRSEDTAVYYCATEGDYGDSEEYYYYYGMDVWGQGTTVTVSS
VL: DIQMTQSPSSLSASVGDRVTITCRASQGISNYLAWYQQKPGKVPKLLIYAASTLQSGVPSRFSGSGSGTDFTLTISSLQPEDVATYYCQKYNRAPFTFGPGTKVDIK
notes: Fully human (XenoMouse) antibody; also called ATCC PTA-9490
B3: monoclonal antibody 10E9.1 (antibody, V domains shown)
VH: QVQLVQSGAEVKKPGASVKVSCKVSGYSLTELSIHWVRQAPGKGLEWMGGFDPEDGEIIFAQKFQGRVTLTEDISLDTAYMEVSSLRSEDTAVYYCATEGHDSGDYVGYYYYGLDVWGQGTTVTVSS
VL: B2 VL with G28D, S30R, Y32F, V43L, T85S, K90S, Y91H, R93S, A94V, K107R
notes: Fully human (XenoMouse) antibody; also called mAb 10E9.1; ATCC PTA-9489
B4: monoclonal antibody 14H12.3 (antibody, V domains shown)
VH: QVQLVESGGGVVQPGRSLRLSCAASGFTFSSYGMHWVRQAPGKGLEWVAVIWYDGSNKDYADSVKGRFTISRDNSKNTLYLQMNSLRAEDTAVYYCAREGSTSWTDYYGMDVWGQGTTVTVSS
VL: SYELTQPPSVSVSPGQTARITCSGDALPKRYAYWYQQKSGQALVLVIYEDSKRPSGIPERFSGSSSGTMATLTISGAQVEDEADYYCYSIDSSGNHGVFGGGTKLTVL
notes: Fully human (XenoMouse) antibody
B5: monoclonal antibody 7B9.1 (antibody, V domains shown)
VH: QVQLVESGGGVVQPGRSLRLSCAASGFTFSSYGMHWVRQAPGKGLEWVAVIWYDGSNKYYADSVKGRFTISRDNSKNTLYLQMNSLRAEDTAVYYCAREGAPYSSSDAFDIWGQGTMVTVSS
VL: QSVLTQPPSVSGAPGQRVTISCTGSSSNIGANYDVHWYQQLPGTAPKLLIYGDNNRPSGVPDRFSGSKSGTSASLAITGLQAEDEADYYCQSYDSSLSGSVFGGGTKLTVL
notes: as for B4
B6: monoclonal antibody 16G1.1 (antibody, V domains shown)
VH: QVQLVESGGGVVQPGRSLRLSCAASGFTFSSYGMHWVRQAPGKGLEWVAVIWYDGSNKYYADSVKGRFTISRDNSKNTLNLQMNSLRAEDTAVYYCGRDPGTYHYYYHGMDVWGQGTTVTVSS
VL: YIVMTQSPLSLPVTPGEPASISCRSSQSLLHSNGYNFLDWYLQKPGQSPQLLIYLGSNRASGVPDRFSGSGSGTDFTLKINRVEAEDVGVYYCMQALQTPITFGQGTRLEIK
notes: as for B4
B7: monoclonal antibody 16E1.1 (antibody, V domains shown)
VH: QVQLQESGPGLVKPSQTLSLTCTVSGGSISSGGYYWSWIRQHPGKGLEWIGFIYYSGSTFYNPSLKSRITISVDTSKNQFSLKLSSVTAADTAVYYCARPYSSSWYGAFDIWGQGTMVTVSS
VL: SYELTQPPSVSVSPGRTASITCSEDKLGNKYAYWYQQKPGQSPVLVIYQDSERPSGIPERFSGSNSGNTATLTISGTQAMDEADYYCQAWDSSTVVFGGGTKLTVL
notes: as for B4

What follows are binders tested against T1, recombinant human heparanase (active, 8 …) (assay: medium resolution Biacore, antibody captured on goat anti-human antibody CM4 chip, recombinant Hpa1 at 1 nM and 10 nM, 25 C, 1:1 model with mass transport).
Protocol: For medium resolution Biacore™ tests, cloned and purified antibodies were used. Each of three purified antibodies (10E9.1, 15A1.2, and 15A11.1) were captured onto a high-density goat anti-human antibody surface over a CM4 Biacore™ chip. Recombinant Hpa1 was diluted to the desired concentration (1 nM and 10 nM) in 10 mM HEPES, 150 mM NaCl, 0.005% tween-20, 0.1 mg per ml BSA pH7.4 (25° C.) immediately prior to injection. Data were fit globally to a 1:1 interaction model with a term for mass transport included. The resulting KD values are summarised below in Table 4.

Kd [nM] | koff [s⁻¹] | kon [M⁻¹ s⁻¹] | Binder
0.056 | 0.000105 | 1.88e+06 | B1
0.056 | 0.000309 | 3.6e+06 | B2
0.0545 | 0.000112 | 2.06e+06 | B3

The binders below were run against T2, murine heparanase (assay: cross species capture ELISA, heparanase captured by rabbit anti-heparanase antibody, exhaustive supernatant 1:5, anti-human IgG Fc detection).
Protocol: (§1) Initially, cross species binding to human, murine and cynomolgus heparanase was determined in an ELISA assay in which heparanase was captured onto plates using a rabbit anti-heparanase antibody (Raybiotech, Cat. IP-14-155). Exhaustive supernatants were added to the plates at a final dilution of 1:5 and bound antibody detected with a rabbit anti-human IgG Fc.

OD, binding to heparanase (Mouse) [OD units] | Binder
0.14 | B4
0.58 | B5
0.61 | B6
0.14 | B1
0.63 | B7
0.17 | B2
0.49 | B3

What follows are binders tested against T3, cynomolgus heparanase in the same assay as above.
Protocol: as §1

OD, binding to heparanase (Cyno) [OD units] | Binder
0.95 | B4
1.06 | B5
1.64 | B6
1.66 | B7
0.14 | B2
1.4 | B3

Each binder was assayed against T4, human heparanase as used in the cross … in the same assay as above.
Protocol: as §1

OD, binding to heparanase (Human) [OD units] | Binder
0.61 | B4
0.68 | B5
1.84 | B6
0.19 | B1
1.08 | B7
0.21 | B2
0.63 | B3

What follows are binders tested against T1, recombinant human heparanase (active, 8 …) (assay: cell-based or functional assay).

Inhibition of recombinant human heparanase %, Assay 1 [%] | Inhibition of recombinant human heparanase %, Assay 2 [%] | Binder
58 | 85 | B4
63 | 54 | B5
44 | 53 | B6
81 | 91 | B1
40 | 51 | B7
75 | 87 | B2
88 | 99 | B3

Each binder was assayed against T1, recombinant human heparanase (active, 8 …) (assay: ELISA, hybridoma supernatant on directly coated recombinant human heparanase).

OD, binding to direct coated heparanase [OD units] | Binder
3.69 | B4
3.78 | B5
3.63 | B6
0.08 | B1
0.15 | B7
0.07 | B2
0.2 | B3
